According to patent US20260001928A1 (CORTERIA PHARMACEUTICALS, priority 2022, published 2026):
*1 amine or outer side, *2 acyl side, *3 side chain or, on linkers, in order; H or OH if unused. Where no end group is shown, it is not given here. Side-chain parts run from the residue outwards. [ ]: non-standard residue; d: D form. The star is where a group is joined. C18 diacid = O=C(O)CCCCCCCCCCCCCCCCC(=O)*; C16 diacid = O=C(O)CCCCCCCCCCCCCCC(=O)*; γGlu = O=C(O)[C@H](CCC(=O)[*:2])N[*:1]; NMeI = CC[C@H](C)[C@H](NC)C(=O)O; Pentanoyl = CCCCC(=O)*; AEEA = NCCOCCOCC(=O)O; Aib = CC(C)(N)C(=O)O

T1: CRF1R receptor (UniProt P34998 24-415, limits assumed)
T1 sequence (looked up): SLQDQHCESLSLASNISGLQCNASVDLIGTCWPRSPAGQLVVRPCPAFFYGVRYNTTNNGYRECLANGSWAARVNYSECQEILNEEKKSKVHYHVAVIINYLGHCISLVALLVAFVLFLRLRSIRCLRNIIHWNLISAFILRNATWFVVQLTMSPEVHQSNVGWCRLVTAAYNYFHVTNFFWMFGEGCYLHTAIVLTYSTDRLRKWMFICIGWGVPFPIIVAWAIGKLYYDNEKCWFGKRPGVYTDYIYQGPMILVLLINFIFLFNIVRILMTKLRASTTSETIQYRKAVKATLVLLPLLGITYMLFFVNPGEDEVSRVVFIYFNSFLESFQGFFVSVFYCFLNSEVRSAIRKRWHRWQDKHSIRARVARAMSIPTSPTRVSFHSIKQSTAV


Key:
CRF1R receptor = molecular target: T1, CRF1R receptor; experiment: cell-based or functional assay
[1] = molecular target: human corticotropin-releasing factor 2a (CRF2a receptor) (human), Q13324; experiment: cell-based or functional assay
Chain of human corticotropin-releasing factor 2a (CRF2a receptor) (human), Q13324 (Q13324 20-411): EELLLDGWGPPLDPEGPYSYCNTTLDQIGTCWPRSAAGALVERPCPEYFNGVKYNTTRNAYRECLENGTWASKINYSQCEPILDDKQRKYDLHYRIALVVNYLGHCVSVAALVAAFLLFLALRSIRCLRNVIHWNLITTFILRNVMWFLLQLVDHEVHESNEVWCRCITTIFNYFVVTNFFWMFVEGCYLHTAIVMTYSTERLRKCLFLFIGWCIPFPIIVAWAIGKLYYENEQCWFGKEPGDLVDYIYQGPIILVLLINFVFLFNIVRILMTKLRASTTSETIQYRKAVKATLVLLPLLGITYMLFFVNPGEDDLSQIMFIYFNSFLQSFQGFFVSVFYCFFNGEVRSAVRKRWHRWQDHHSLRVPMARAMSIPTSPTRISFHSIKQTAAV

| EC50 (CRF1R receptor) [nM] | Emax (% I) (CRF1R receptor) [%] | EC50 [nM] (cAMP) [1] | Binder |
| --- | --- | --- | --- |
| > 250 | 15 | 0.29 | Ac-IVLSLD[dV]PIKLK([AEEA-AEEA-γGlu-γGlu-C18 diacid])QILLKQERQKKQREQAEKN[Aib]QILEQV-NH2 (SMILES CC[C@H](C)[C@H](NC(C)=O)C(=O)N[C@H](C(=O)N[C@@H](CC(C)C)C(=O)N[C@@H](CO)C(=O)N[C@@H](CC(C)C)C(=O)N[C@@H](CC(=O)O)C(=O)N[C@@H](C(=O)N1CCC[C@H]1C(=O)N[C@H](C(=O)N[C@@H](CCCCN)C(=O)N[C@@H](CC(C)C)C(=O)N[C@@H](CCCCNC(=O)COCCOCCNC(=O)COCCOCCNC(=O)CC[C@H](NC(=O)CC[C@H](NC(=O)CCCCCCCCCCCCCCCCC(=O)O)C(=O)O)C(=O)O)C(=O)N[C@@H](CCC(N)=O)C(=O)N[C@H](C(=O)N[C@@H](CC(C)C)C(=O)N[C@@H](CC(C)C)C(=O)N[C@@H](CCCCN)C(=O)N[C@@H](CCC(N)=O)C(=O)N[C@@H](CCC(=O)O)C(=O)N[C@@H](CCCNC(=N)N)C(=O)N[C@@H](CCC(N)=O)C(=O)N[C@@H](CCCCN)C(=O)N[C@@H](CCCCN)C(=O)N[C@@H](CCC(N)=O)C(=O)N[C@@H](CCCNC(=N)N)C(=O)N[C@@H](CCC(=O)O)C(=O)N[C@@H](CCC(N)=O)C(=O)N[C@@H](C)C(=O)N[C@@H](CCC(=O)O)C(=O)N[C@@H](CCCCN)C(=O)N[C@@H](CC(N)=O)C(=O)NC(C)(C)C(=O)N[C@@H](CCC(N)=O)C(=O)N[C@H](C(=O)N[C@@H](CC(C)C)C(=O)N[C@@H](CCC(=O)O)C(=O)N[C@@H](CCC(N)=O)C(=O)N[C@H](C(N)=O)C(C)C)[C@@H](C)CC)[C@@H](C)CC)[C@@H](C)CC)C(C)C)C(C)C) [SEQ ID NO 30] |
| > 250 | 5 | 1.04 | Pentanoyl-VLSLD[dV]PIKLK([AEEA-AEEA-γGlu-γGlu-C18 diacid])QILLKQERQKKQREQAEKN[Aib]QILEQV-NH2 (SMILES CCCCC(=O)N[C@H](C(=O)N[C@@H](CC(C)C)C(=O)N[C@@H](CO)C(=O)N[C@@H](CC(C)C)C(=O)N[C@@H](CC(=O)O)C(=O)N[C@@H](C(=O)N1CCC[C@H]1C(=O)N[C@H](C(=O)N[C@@H](CCCCN)C(=O)N[C@@H](CC(C)C)C(=O)N[C@@H](CCCCNC(=O)COCCOCCNC(=O)COCCOCCNC(=O)CC[C@H](NC(=O)CC[C@H](NC(=O)CCCCCCCCCCCCCCCCC(=O)O)C(=O)O)C(=O)O)C(=O)N[C@@H](CCC(N)=O)C(=O)N[C@H](C(=O)N[C@@H](CC(C)C)C(=O)N[C@@H](CC(C)C)C(=O)N[C@@H](CCCCN)C(=O)N[C@@H](CCC(N)=O)C(=O)N[C@@H](CCC(=O)O)C(=O)N[C@@H](CCCNC(=N)N)C(=O)N[C@@H](CCC(N)=O)C(=O)N[C@@H](CCCCN)C(=O)N[C@@H](CCCCN)C(=O)N[C@@H](CCC(N)=O)C(=O)N[C@@H](CCCNC(=N)N)C(=O)N[C@@H](CCC(=O)O)C(=O)N[C@@H](CCC(N)=O)C(=O)N[C@@H](C)C(=O)N[C@@H](CCC(=O)O)C(=O)N[C@@H](CCCCN)C(=O)N[C@@H](CC(N)=O)C(=O)NC(C)(C)C(=O)N[C@@H](CCC(N)=O)C(=O)N[C@H](C(=O)N[C@@H](CC(C)C)C(=O)N[C@@H](CCC(=O)O)C(=O)N[C@@H](CCC(N)=O)C(=O)N[C@H](C(N)=O)C(C)C)[C@@H](C)CC)[C@@H](C)CC)[C@@H](C)CC)C(C)C)C(C)C) [SEQ ID NO 32] |
|  | 5 | 0.67 | Pentanoyl-VLSLD[dV]PIKLK([AEEA-AEEA-γGlu-C18 diacid])KILLEQEKQKKQREQAETNAQILAQV-NH2 (SMILES CCCCC(=O)N[C@H](C(=O)N[C@@H](CC(C)C)C(=O)N[C@@H](CO)C(=O)N[C@@H](CC(C)C)C(=O)N[C@@H](CC(=O)O)C(=O)N[C@@H](C(=O)N1CCC[C@H]1C(=O)N[C@H](C(=O)N[C@@H](CCCCN)C(=O)N[C@@H](CC(C)C)C(=O)N[C@@H](CCCCNC(=O)COCCOCCNC(=O)COCCOCCNC(=O)CC[C@H](NC(=O)CCCCCCCCCCCCCCCCC(=O)O)C(=O)O)C(=O)N[C@@H](CCCCN)C(=O)N[C@H](C(=O)N[C@@H](CC(C)C)C(=O)N[C@@H](CC(C)C)C(=O)N[C@@H](CCC(=O)O)C(=O)N[C@@H](CCC(N)=O)C(=O)N[C@@H](CCC(=O)O)C(=O)N[C@@H](CCCCN)C(=O)N[C@@H](CCC(N)=O)C(=O)N[C@@H](CCCCN)C(=O)N[C@@H](CCCCN)C(=O)N[C@@H](CCC(N)=O)C(=O)N[C@@H](CCCNC(=N)N)C(=O)N[C@@H](CCC(=O)O)C(=O)N[C@@H](CCC(N)=O)C(=O)N[C@@H](C)C(=O)N[C@@H](CCC(=O)O)C(=O)N[C@H](C(=O)N[C@@H](CC(N)=O)C(=O)N[C@@H](C)C(=O)N[C@@H](CCC(N)=O)C(=O)N[C@H](C(=O)N[C@@H](CC(C)C)C(=O)N[C@@H](C)C(=O)N[C@@H](CCC(N)=O)C(=O)N[C@H](C(N)=O)C(C)C)[C@@H](C)CC)[C@@H](C)O)[C@@H](C)CC)[C@@H](C)CC)C(C)C)C(C)C) [SEQ ID NO 122] |
|  | 1 | 3.08 | Ac-IVLSLD[dV]PIKLK([AEEA-AEEA-γGlu-C16 diacid])KILLEQEKQKKQREQAETN[Aib]QILAQV-NH2 (SMILES CC[C@H](C)[C@H](NC(C)=O)C(=O)N[C@H](C(=O)N[C@@H](CC(C)C)C(=O)N[C@@H](CO)C(=O)N[C@@H](CC(C)C)C(=O)N[C@@H](CC(=O)O)C(=O)N[C@@H](C(=O)N1CCC[C@H]1C(=O)N[C@H](C(=O)N[C@@H](CCCCN)C(=O)N[C@@H](CC(C)C)C(=O)N[C@@H](CCCCNC(=O)COCCOCCNC(=O)COCCOCCNC(=O)CC[C@H](NC(=O)CCCCCCCCCCCCCCC(=O)O)C(=O)O)C(=O)N[C@@H](CCCCN)C(=O)N[C@H](C(=O)N[C@@H](CC(C)C)C(=O)N[C@@H](CC(C)C)C(=O)N[C@@H](CCC(=O)O)C(=O)N[C@@H](CCC(N)=O)C(=O)N[C@@H](CCC(=O)O)C(=O)N[C@@H](CCCCN)C(=O)N[C@@H](CCC(N)=O)C(=O)N[C@@H](CCCCN)C(=O)N[C@@H](CCCCN)C(=O)N[C@@H](CCC(N)=O)C(=O)N[C@@H](CCCNC(=N)N)C(=O)N[C@@H](CCC(=O)O)C(=O)N[C@@H](CCC(N)=O)C(=O)N[C@@H](C)C(=O)N[C@@H](CCC(=O)O)C(=O)N[C@H](C(=O)N[C@@H](CC(N)=O)C(=O)NC(C)(C)C(=O)N[C@@H](CCC(N)=O)C(=O)N[C@H](C(=O)N[C@@H](CC(C)C)C(=O)N[C@@H](C)C(=O)N[C@@H](CCC(N)=O)C(=O)N[C@H](C(N)=O)C(C)C)[C@@H](C)CC)[C@@H](C)O)[C@@H](C)CC)[C@@H](C)CC)C(C)C)C(C)C) [SEQ ID NO 42] |
| 158 | 48 | 0.09 | [NMeI]VLSLD[dV]PIKLK([γGlu-C16 diacid])QILLKQERQKKQREQAEKNKQILEQV-NH2 (N-terminus assumed; SMILES CC[C@H](C)[C@H](NC)C(=O)N[C@H](C(=O)N[C@@H](CC(C)C)C(=O)N[C@@H](CO)C(=O)N[C@@H](CC(C)C)C(=O)N[C@@H](CC(=O)O)C(=O)N[C@@H](C(=O)N1CCC[C@H]1C(=O)N[C@H](C(=O)N[C@@H](CCCCN)C(=O)N[C@@H](CC(C)C)C(=O)N[C@@H](CCCCNC(=O)CC[C@H](NC(=O)CCCCCCCCCCCCCCC(=O)O)C(=O)O)C(=O)N[C@@H](CCC(N)=O)C(=O)N[C@H](C(=O)N[C@@H](CC(C)C)C(=O)N[C@@H](CC(C)C)C(=O)N[C@@H](CCCCN)C(=O)N[C@@H](CCC(N)=O)C(=O)N[C@@H](CCC(=O)O)C(=O)N[C@@H](CCCNC(=N)N)C(=O)N[C@@H](CCC(N)=O)C(=O)N[C@@H](CCCCN)C(=O)N[C@@H](CCCCN)C(=O)N[C@@H](CCC(N)=O)C(=O)N[C@@H](CCCNC(=N)N)C(=O)N[C@@H](CCC(=O)O)C(=O)N[C@@H](CCC(N)=O)C(=O)N[C@@H](C)C(=O)N[C@@H](CCC(=O)O)C(=O)N[C@@H](CCCCN)C(=O)N[C@@H](CC(N)=O)C(=O)N[C@@H](CCCCN)C(=O)N[C@@H](CCC(N)=O)C(=O)N[C@H](C(=O)N[C@@H](CC(C)C)C(=O)N[C@@H](CCC(=O)O)C(=O)N[C@@H](CCC(N)=O)C(=O)N[C@H](C(N)=O)C(C)C)[C@@H](C)CC)[C@@H](C)CC)[C@@H](C)CC)C(C)C)C(C)C) [SEQ ID NO 5] |
| > 250 | 14 | 0.23 | [NMeI]VLSLD[dV]PIKLK([AEEA-AEEA-γGlu-γGlu-C18 diacid])QILLKQERQKKQREQAEKN[Aib]QILEQV-NH2 (N-terminus assumed; SMILES CC[C@H](C)[C@H](NC)C(=O)N[C@H](C(=O)N[C@@H](CC(C)C)C(=O)N[C@@H](CO)C(=O)N[C@@H](CC(C)C)C(=O)N[C@@H](CC(=O)O)C(=O)N[C@@H](C(=O)N1CCC[C@H]1C(=O)N[C@H](C(=O)N[C@@H](CCCCN)C(=O)N[C@@H](CC(C)C)C(=O)N[C@@H](CCCCNC(=O)COCCOCCNC(=O)COCCOCCNC(=O)CC[C@H](NC(=O)CC[C@H](NC(=O)CCCCCCCCCCCCCCCCC(=O)O)C(=O)O)C(=O)O)C(=O)N[C@@H](CCC(N)=O)C(=O)N[C@H](C(=O)N[C@@H](CC(C)C)C(=O)N[C@@H](CC(C)C)C(=O)N[C@@H](CCCCN)C(=O)N[C@@H](CCC(N)=O)C(=O)N[C@@H](CCC(=O)O)C(=O)N[C@@H](CCCNC(=N)N)C(=O)N[C@@H](CCC(N)=O)C(=O)N[C@@H](CCCCN)C(=O)N[C@@H](CCCCN)C(=O)N[C@@H](CCC(N)=O)C(=O)N[C@@H](CCCNC(=N)N)C(=O)N[C@@H](CCC(=O)O)C(=O)N[C@@H](CCC(N)=O)C(=O)N[C@@H](C)C(=O)N[C@@H](CCC(=O)O)C(=O)N[C@@H](CCCCN)C(=O)N[C@@H](CC(N)=O)C(=O)NC(C)(C)C(=O)N[C@@H](CCC(N)=O)C(=O)N[C@H](C(=O)N[C@@H](CC(C)C)C(=O)N[C@@H](CCC(=O)O)C(=O)N[C@@H](CCC(N)=O)C(=O)N[C@H](C(N)=O)C(C)C)[C@@H](C)CC)[C@@H](C)CC)[C@@H](C)CC)C(C)C)C(C)C) [SEQ ID NO 31] |
